Measured values from patent publication US20220275097A1.
Numbering of substitutions follows the chain as printed.

B1: S2H7 (antibody, V domains shown)
VH: QVQLLQSGGGVVQPGRSLRLSCAASGFTFSSYGMHWVRQAPGKGLEWVAVISYDGSNKYYADSVKGRFTISRDNSKNTLYLQMNSLRAEDTAVYYCATRYENYFSTWGQGTLVTVSS
VL: EIVLTQSPGTLSLSPGERATLSCRASQSVSSNYLAWYQQKPGQAPRLLIYGASSRPTGIPDRFSGSGSGTDFTLTISRLEPEDFAVYYCQQYAASPLTFGGGTKLEIK
B2: S2H5 (antibody, V domains shown)
VH: B1 VH with T98S, T106L
VL: B1 VL
B3: S2H1 (antibody, V domains shown)
VH: B1 VH with T98S, R99L, T106L
VL: B1 VL
B4: S2H3 (antibody, V domains shown)
VH: B1 VH with T98G, R99V, Y100R, S105T, T106Y
VL: B1 VL
B5: S2H2 (antibody, V domains shown)
VH: B1 VH with R99F, Y100R, S105E, T106Y
VL: B1 VL

Molecular target: leptin receptor on reporter cells (SIE-luciferase reporter cells; Ba/F3-lepR reporter cells), P48357
Sequence (P48357 22-1165): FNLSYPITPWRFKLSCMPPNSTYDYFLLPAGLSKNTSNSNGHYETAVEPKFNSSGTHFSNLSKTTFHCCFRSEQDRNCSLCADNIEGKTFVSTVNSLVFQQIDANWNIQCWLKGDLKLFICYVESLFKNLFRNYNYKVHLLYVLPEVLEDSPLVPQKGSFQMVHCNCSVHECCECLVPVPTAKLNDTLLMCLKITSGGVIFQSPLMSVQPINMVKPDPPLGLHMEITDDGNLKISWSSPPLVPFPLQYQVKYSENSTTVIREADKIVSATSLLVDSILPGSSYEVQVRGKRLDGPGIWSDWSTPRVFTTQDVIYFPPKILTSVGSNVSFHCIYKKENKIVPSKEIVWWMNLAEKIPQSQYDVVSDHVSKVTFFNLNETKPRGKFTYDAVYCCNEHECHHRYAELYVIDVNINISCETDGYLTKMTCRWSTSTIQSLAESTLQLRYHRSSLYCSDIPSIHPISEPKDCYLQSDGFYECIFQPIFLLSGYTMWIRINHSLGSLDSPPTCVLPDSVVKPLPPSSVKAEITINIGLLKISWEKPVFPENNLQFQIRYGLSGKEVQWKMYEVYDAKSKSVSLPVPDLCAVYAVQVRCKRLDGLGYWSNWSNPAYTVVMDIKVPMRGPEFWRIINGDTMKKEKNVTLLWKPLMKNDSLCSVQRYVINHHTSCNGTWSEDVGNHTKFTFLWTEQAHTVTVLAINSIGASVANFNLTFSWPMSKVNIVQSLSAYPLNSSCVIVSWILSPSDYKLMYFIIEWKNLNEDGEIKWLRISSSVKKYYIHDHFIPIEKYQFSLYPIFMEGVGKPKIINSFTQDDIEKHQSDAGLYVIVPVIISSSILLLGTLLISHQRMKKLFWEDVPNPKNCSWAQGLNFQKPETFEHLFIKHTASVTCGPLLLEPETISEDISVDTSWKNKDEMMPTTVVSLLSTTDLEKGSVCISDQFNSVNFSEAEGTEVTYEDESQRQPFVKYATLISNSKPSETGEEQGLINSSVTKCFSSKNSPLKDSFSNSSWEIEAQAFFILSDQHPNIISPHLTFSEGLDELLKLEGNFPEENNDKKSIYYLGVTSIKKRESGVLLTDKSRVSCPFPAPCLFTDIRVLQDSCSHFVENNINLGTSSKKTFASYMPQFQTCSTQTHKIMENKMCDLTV
Assay: cell-based or functional assay

Binder	EC50(M), Cell proliferation assay (Ba/F3-lepR)	EC50(M), Luciferase assay	EC50, SIE-luciferase reporter assay
B1	1.15e-09 M	4.94e-10 M	494 pM
B2	1.63e-09 M	7.38e-10 M	738 pM
B3	4.19e-10 M	4.53e-10 M	453 pM
B4	1.93e-10 M	3.28e-10 M	328 pM
B5	6.87e-10 M	6.52e-10 M	652 pM
